Values belong to the substance of their own block, whether it stands above or below them.
Experiments:
CD96 [1] = molecular target: T1, CD96 (UniProt P40200); experiment: flow cytometry on CD96-expressing cells
T1 sequence (looked up): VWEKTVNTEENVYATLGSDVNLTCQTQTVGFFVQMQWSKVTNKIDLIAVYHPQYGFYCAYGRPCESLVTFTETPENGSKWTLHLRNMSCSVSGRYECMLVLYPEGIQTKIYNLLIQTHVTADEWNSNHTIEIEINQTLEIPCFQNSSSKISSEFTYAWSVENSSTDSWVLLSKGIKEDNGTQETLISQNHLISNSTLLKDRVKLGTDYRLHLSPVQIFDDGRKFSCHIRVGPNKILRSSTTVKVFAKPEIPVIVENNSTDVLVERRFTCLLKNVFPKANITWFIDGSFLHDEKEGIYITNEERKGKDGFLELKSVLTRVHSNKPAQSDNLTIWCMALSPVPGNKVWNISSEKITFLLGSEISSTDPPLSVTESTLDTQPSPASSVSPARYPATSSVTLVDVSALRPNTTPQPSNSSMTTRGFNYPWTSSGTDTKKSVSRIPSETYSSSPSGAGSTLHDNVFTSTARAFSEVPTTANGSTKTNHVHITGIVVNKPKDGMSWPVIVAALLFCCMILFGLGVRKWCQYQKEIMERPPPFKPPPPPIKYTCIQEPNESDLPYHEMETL

[2] = molecular target: CD112R (full length, expressed on transfected cells) (human) (UniProt Q6DKI7); experiment: flow cytometry on cells expressing the target, 20 nM
[3] = molecular target: T2, CD96 (expressed on cells) (UniProt P40200); experiment: as above
T2 sequence (looked up): T1 sequence (looked up)

CD226 (human) [4] = molecular target: T3, CD226 (human) (UniProt Q15762); experiment: flow cytometry on CD226-expressing cells
T3 sequence: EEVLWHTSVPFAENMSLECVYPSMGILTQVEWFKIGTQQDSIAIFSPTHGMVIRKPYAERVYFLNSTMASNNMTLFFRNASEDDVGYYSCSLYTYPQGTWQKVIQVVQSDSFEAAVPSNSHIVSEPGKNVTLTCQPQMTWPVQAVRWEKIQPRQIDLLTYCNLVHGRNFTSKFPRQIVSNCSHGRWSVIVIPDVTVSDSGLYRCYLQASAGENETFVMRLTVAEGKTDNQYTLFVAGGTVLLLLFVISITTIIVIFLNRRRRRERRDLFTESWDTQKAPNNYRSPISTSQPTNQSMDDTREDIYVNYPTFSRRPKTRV

CD96 [5] = molecular target: T1, CD96; experiment: flow cytometry, cells
TIGIT (human) [6] = molecular target: T4, TIGIT (human) (UniProt Q495A1); experiment: flow cytometry, transfected cells
T4 sequence: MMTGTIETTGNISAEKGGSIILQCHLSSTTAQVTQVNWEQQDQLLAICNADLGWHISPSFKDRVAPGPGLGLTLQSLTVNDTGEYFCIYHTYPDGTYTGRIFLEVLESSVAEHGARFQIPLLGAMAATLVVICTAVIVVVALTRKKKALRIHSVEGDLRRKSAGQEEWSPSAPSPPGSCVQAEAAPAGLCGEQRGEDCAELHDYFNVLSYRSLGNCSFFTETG

CD226 (human) [7] = molecular target: T3, CD226 (human); experiment: flow cytometry, transfected cells
CD96 [8] = molecular target: T1, CD96; experiment: flow cytometry, CD96-expressing cells
CD226 (human) [9] = molecular target: T3, CD226 (human); experiment: flow cytometry, CD226-expressing cells
TIGIT (human) [10] = molecular target: T4, TIGIT (human); experiment: flow cytometry, TIGIT-expressing cells
CD28 (human) = CD28 (human) (UniProt P10747); experiment: flow cytometry, transfected cells
PD-L1 (human) = PD-L1 (human) (UniProt Q9NZQ7); experiment: flow cytometry, transfected cells
Sequence of PD-L1 (human) (Q9NZQ7 19-290 limits assumed): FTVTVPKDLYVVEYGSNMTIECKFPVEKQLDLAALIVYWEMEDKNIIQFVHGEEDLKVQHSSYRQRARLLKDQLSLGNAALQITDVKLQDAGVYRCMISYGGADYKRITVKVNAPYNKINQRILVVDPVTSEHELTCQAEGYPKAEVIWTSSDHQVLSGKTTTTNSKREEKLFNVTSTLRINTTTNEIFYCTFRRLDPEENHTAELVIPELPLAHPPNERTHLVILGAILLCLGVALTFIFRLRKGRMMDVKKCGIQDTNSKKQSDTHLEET

Sequence of CD155 Wild type IgV-Fc (P15151 24-139 limits assumed): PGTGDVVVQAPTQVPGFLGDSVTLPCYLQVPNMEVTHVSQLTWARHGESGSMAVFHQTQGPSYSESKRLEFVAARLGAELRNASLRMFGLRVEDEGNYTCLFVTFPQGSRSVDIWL
Sequence of Domain 1: CD80 WT / Domain 2: CD86 WT / Fc (Fc fusion) (chain): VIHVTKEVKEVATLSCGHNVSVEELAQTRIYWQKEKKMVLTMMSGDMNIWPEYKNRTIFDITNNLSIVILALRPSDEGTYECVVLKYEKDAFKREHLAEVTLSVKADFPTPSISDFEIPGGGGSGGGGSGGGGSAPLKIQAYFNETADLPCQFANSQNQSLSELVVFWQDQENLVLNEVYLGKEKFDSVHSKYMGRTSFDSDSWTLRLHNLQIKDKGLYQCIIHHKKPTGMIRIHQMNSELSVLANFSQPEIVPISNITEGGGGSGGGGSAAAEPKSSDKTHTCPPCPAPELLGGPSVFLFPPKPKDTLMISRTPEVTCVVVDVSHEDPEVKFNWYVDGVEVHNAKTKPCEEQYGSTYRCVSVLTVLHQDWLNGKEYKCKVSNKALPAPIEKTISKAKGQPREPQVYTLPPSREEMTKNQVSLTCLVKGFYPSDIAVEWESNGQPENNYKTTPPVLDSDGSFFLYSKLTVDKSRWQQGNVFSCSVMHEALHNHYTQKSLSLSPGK
Sequence of CD112R (full length, expressed on transfected cells) (human) (Q6DKI7 whole entry): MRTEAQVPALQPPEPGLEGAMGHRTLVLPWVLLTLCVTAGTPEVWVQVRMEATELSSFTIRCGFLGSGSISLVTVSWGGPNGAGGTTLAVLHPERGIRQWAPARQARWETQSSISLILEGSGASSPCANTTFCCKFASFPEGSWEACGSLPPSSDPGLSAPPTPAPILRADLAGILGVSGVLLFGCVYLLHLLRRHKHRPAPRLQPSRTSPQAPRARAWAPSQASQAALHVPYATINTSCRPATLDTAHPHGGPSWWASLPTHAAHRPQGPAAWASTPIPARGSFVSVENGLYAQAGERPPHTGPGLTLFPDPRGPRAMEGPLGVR

Substance: CD112 ECD-Fc (from UniProt Q92692 32-360) (Fc fusion)
MFI at 100 nM (CD96 [1]): 1100 MFI

Substance: CD112 variant R12W, A46T, K66M, Q79R, N106I, T113A, S118F IgV-Fc (from UniProt Q92692 32-156) (Fc fusion)
MFI at 100 nM (CD96 [1]): 4060 MFI

Substance: CD112 variant Y33H, A46T, Q79R, N106I, S118F IgV-Fc (from UniProt Q92692 32-156) (Fc fusion)
MFI at 100 nM (CD226 (human) [4]): 15600 MFI

Substance: CD112 variant Y33H, S118T IgV-Fc (from UniProt Q92692 32-156) (Fc fusion)
MFI at 100 nM (CD96 [1]): 5000 MFI
MFI at 100 nM (CD226 (human) [4]): 17700 MFI

Substance: CD155 P18S, F91S IgV-Fc (from UniProt P15151 24-139) (Fc fusion)
MFI (CD96 [5]): 147000
MFI (CD226 (human) [7]): 409000

Substance: CD155 Wild type IgV-Fc (from UniProt P15151 24-139) (Fc fusion)
MFI (CD96 [5]): 3080
MFI (CD226 (human) [7]): 3720
MFI (TIGIT (human) [6]): 2720

Substance: CD155 variant IgV-Fc A13R, D23Y, E37P, S42P, Q62Y, A81E (from UniProt P15151 24-139) (Fc fusion)
MFI at 100 nM (CD96 [8]): 5760 MFI
MFI at 100 nM (CD226 (human) [9]): 11700 MFI
MFI at 100 nM (TIGIT (human) [10]): 4160 MFI

Substance: CD155 variant IgV-Fc P18S, V41A, S42G, T45G, L104N (from UniProt P15151 24-139) (Fc fusion)
MFI at 100 nM (CD96 [8]): 3090 MFI
MFI at 100 nM (CD226 (human) [9]): 11400 MFI
MFI at 100 nM (TIGIT (human) [10]): 3820 MFI

Substance: Domain 1: CD80 WT / Domain 2: CD86 WT / Fc (Fc fusion)
MFI (CD28 (human)): 60300
MFI (PD-L1 (human)): 2080

Next, values leading:

MFI at 20 nM [2]: 1120
MFI at 20 nM [3]: 2640
Substance: CD112 IgV R12W, Y33H, N47K, Q79R, S118Y Fc fusion (from UniProt Q92692 32-156)

MFI (CD96 [5]): 2620
MFI (TIGIT (human) [6]): 2910
Substance: CD155 A81V, L83P IgV-Fc (from UniProt P15151 24-139) (Fc fusion)

MFI (CD96 [5]): 3280
MFI (CD226 (human) [7]): 5140
MFI (TIGIT (human) [6]): 4070
Substance: CD155 P18L, L79V, F91S IgV-Fc (from UniProt P15151 24-139) (Fc fusion)

MFI (CD96 [5]): 2680
MFI (TIGIT (human) [6]): 3220
Substance: CD155 P18S, F91P IgV-Fc (from UniProt P15151 24-139) (Fc fusion)

MFI (CD96 [5]): 2510
MFI (CD226 (human) [7]): 3590
MFI (TIGIT (human) [6]): 2940
Substance: CD155 P18T, F91S, R94H IgV-Fc (from UniProt P15151 24-139) (Fc fusion)

MFI at 100 nM (CD96 [8]): 2890 MFI
MFI at 100 nM (CD226 (human) [9]): 8320 MFI
MFI at 100 nM (TIGIT (human) [10]): 3210 MFI
Substance: CD155 variant IgV-Fc L79P, L104M (from UniProt P15151 24-139) (Fc fusion)

MFI at 100 nM (CD96 [8]): 3340 MFI
MFI at 100 nM (TIGIT (human) [10]): 5900 MFI
Substance: CD155 variant IgV-Fc P18L, E37S, Q62M, G80S, A81P, G99Y, S112N (from UniProt P15151 24-139) (Fc fusion)

MFI at 11.1 nM (CD226 (human) [9]): 1190 MFI
Substance: CD155 variant IgV-Fc P18S, A47G, L79P, F91S, L104M, T107A, R113W (from UniProt P15151 24-139) (Fc fusion)

MFI at 100 nM (CD96 [8]): 22800 MFI
MFI at 100 nM (CD226 (human) [9]): 18300 MFI
Substance: CD155 variant IgV-Fc P18S, L79P, L104M, T107M (from UniProt P15151 24-139) (Fc fusion)

MFI at 100 nM (CD96 [8]): 2220 MFI
MFI at 100 nM (CD226 (human) [9]): 2110 MFI
MFI at 100 nM (TIGIT (human) [10]): 125000 MFI
Substance: CD155 variant IgV-Fc P18S, T45S, T61K, S65W, S67A, F91S, G111R (from UniProt P15151 24-139) (Fc fusion)

MFI at 11.1 nM (CD226 (human) [9]): 803 MFI
Substance: CD155 variant IgV-Fc V9I, Q12K, P18F, S65A, S67V, L79P, L104T, G111R, S112I (from UniProt P15151 21-139) (Fc fusion)

MFI at 11.1 nM (CD96 [8]): 1500 MFI
MFI at 11.1 nM (CD226 (human) [9]): 835 MFI
Substance: CD155 variant IgV-Fc V9L, P18T, Q62R, L79P, F91S, L104M, G111R (from UniProt P15151 24-139) (Fc fusion)

From patent US20200040059A1
